One block for each binder: values may come before it.
Tests used:
huGARP/hLTGF-β complex [1] = biological target: T1, huGARP/hLTGF-β complex (human, UniProt P01137 30-390); assay: cell-based or functional assay
huGARP/hLTGF-β complex [2] = biological target: T1, huGARP/hLTGF-β complex; assay: flow cytometry on activated primary human Tregs, PE secondary antibody
Procedure: Anti-huGARP antibodies GARP.2, GARP.3, 1H10, 3H5, 22G8 and a hIgG1 isotype control were incubated at 4° C. for 30 minutes with activated Tregs from a healthy donor in a 96 well plate at a starting concentrations of 40 μg/ml followed by serial dilutions. Activated Tregs were prepared from previously isolated and expanded Tregs stimulated for two days with anti-CD3/CD28 activation beads (ThermoFisher, Waltham, Mass., USA) in the presence of 100 units/mL of recombinant human IL-2. An appropriate PE secondary antibody against the primary anti-GARP antibody was applied and washed off after incubation for 15 minutes at 4° C. Samples were processed on a flow cytometer and PE fluorescence intensities analyzed on FLOWJO® flow cytometry system. EC50 calculations were derived using […] PRISM® data analysis software.

T1 sequence (chain, as listed by the source, form in doubt, chain 1 of 2): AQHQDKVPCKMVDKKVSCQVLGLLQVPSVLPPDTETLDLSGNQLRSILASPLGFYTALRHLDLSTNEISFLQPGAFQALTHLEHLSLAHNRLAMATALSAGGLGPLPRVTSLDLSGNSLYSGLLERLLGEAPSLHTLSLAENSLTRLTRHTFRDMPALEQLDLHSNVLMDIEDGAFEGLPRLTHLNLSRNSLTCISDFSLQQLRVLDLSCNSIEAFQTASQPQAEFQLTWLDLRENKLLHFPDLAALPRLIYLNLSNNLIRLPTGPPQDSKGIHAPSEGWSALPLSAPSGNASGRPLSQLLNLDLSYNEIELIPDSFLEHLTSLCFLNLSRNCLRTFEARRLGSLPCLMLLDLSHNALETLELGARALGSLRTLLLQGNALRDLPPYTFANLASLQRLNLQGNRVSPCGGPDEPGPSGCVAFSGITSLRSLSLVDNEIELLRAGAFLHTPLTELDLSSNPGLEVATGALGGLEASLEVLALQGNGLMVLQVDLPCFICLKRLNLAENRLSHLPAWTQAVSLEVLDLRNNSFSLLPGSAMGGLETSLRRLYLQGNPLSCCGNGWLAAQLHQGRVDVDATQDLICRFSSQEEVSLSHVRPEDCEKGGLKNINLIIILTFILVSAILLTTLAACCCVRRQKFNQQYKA
T1 sequence (P01137 30-390, form in doubt, chain 2 of 2): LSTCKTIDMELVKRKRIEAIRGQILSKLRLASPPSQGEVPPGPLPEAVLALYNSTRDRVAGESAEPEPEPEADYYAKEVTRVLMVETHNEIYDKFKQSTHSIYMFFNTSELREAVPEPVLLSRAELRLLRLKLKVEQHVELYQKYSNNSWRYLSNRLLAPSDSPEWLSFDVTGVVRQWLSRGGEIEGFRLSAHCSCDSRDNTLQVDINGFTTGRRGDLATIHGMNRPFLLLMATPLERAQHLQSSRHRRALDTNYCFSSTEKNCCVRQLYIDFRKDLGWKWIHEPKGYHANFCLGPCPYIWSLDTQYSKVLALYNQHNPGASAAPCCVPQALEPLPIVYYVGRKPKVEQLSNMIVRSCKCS

TGF-β release (ELISA of soluble TGF-β after six hours, 3A9 cells expressing huGARP/latent TGF-β complex on αvβ8 integrin) (huGARP/hLTGF-β complex [1]): 16 fold
B1: anti-huGARP mAb 10H7 (antibody, IgG1, V domains shown)
VH: QVQLVESGGGVVQPGRSLRLSCAASEFTFSSYGMYWVRQAPGKGLEWVSIIWHDGSKKYYVDSVKGRFTISRDNSKNTLYLQMNSLRGEDTAVYYCAREQWESWYLDLWGRGTLVTVSS
VL: not shown

EC50 (huGARP/hLTGF-β complex [2]): 0.61 nM
B2: anti-huGARP antibody GARP.2 (antibody, V domains shown)
VH: B1 VH
VL: not shown
notes: Variant of mAb 10H7 with a human IgG1.1 constant domain in place of the original IgG1; also called 10H7/GARP.2
